Literature values, collected in publication PMC7922473.

Molecular target: PrPC (cellular prion protein) (UniProt P04156)

Question: Which Kd does the source give for “CGGTGGGGCAATTTCTCCTACTGT [PrPC aptamer (PrPC-Apt)]” here?
Answer: Its Kd is 16 nM.
